Data on 19 variants can be found in the supplement of paper PMC10201428.

B1: library; a variant is named by its letters at N, in order (parent)
chain: AATGTTGTTGATGCAACCATAAAGTGATATTTAATAATTATTTATAATCAGCAACTTAACCACAAAACAACCATATATTGATATNTCACAAAACAACCATAANTTGATATTTTTGTGAATCGAGTATTTCAGCAAAACTACTGCAGTAAGAA

The variants in data set [1] derive from B1. Description: relative integration efficiency (T-LR orientation) vs wild-type transposon end (log2 (normalized fold change)); transposon end mutated: left end; higher = more efficient transposition. To be noted: with VchCAST RNA-guided transposition machinery (E. coli BL21(DE3) host, lacZ target). The procedure, abridged:
(§1)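 Each barcoded pool, 1549 left-end or 1849 right-end transposon variants in a pUC57 mini-transposon donor, went into E. coli BL21(DE3) with a T7-driven effector plasmid (CRISPR array, tniQ-cas8-cas7-cas6, tnsA-tnsB-tnsC). Plates contained 0.1 mM IPTG and were held at 37°C for 18 h. Input plasmids and genomic integration junctions were PCR-amplified and read by Illumina sequencing, with two biological output replicates and four reference barcodes. Relative integration efficiency is the fold change of output over input barcode abundance, normalised to the reference barcodes and log-transformed.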

Variants of B1 are the subject of data set [2]. The experiment in a line: relative integration efficiency (T-RL orientation) vs wild-type transposon end (log2 (normalized fold change)); transposon end mutated: left end; higher = more efficient transposition. The conditions noted are these: with VchCAST RNA-guided transposition machinery (E. coli BL21(DE3) host, lacZ target). The procedure, abridged:
as §1

± gives the standard deviation of the averaged measurements.

Regarding AATGTTGTTGATGCAACCATAAAGTGATATTTAATAATTATTTATAATCCTCAACTTAACCACAAAACAACCATATATTGATATCTCACAAAACAACCATAAGTTGATATTTTTGTGAATCGAGTATTTCAGCAAAACTACTGCAGTAAGAA, the entries for the “relative integration efficiency (log2)” value in data set [1] and in data set [2] were -0.407 ± 0.67 and -0.196 ± 0.22, respectively.
With AATGTTGTTGATGCAACCATAAAGTGATATTTAATAATTATTTATAATCTCCAACTTAACCACAAAACAACCATATATTGATATCTCACAAAACAACCATAAGTTGATATTTTTGTGAATCGAGTATTTCAGCAAAACTACTGCAGTAAGAA, the entries for the “relative integration efficiency (log2)” value in data set [1] and in data set [2] were -1.59 ± 0.97 and -0.729 ± 0.46, respectively.
On to AATGTTGTTGATGCAACCATAAAGTGATATTTAATAATTATTTATAATCCTACACTTAACCACAAAACAACCATATATTGATATCTCACAAAACAACCATAAGTTGATATTTTTGTGAATCGAGTATTTCAGCAAAACTACTGCAGTAAGAA, for which the figures for the “relative integration efficiency (log2)” value in data set [1] and in data set [2] were -0.0404 ± 0.5 and -0.0487 ± 0.27, respectively.
In the case of AATGTTGTTGATGCAACCATAAAGTGATATTTAATAATTATTTATATAGTGCAACTTAACCACAAAACAACCATATATTGATATCTCACAAAACAACCATAAGTTGATATTTTTGTGAATCGAGTATTTCAGCAAAACTACTGCAGTAAGAA, the figures for the “relative integration efficiency (log2)” value in data set [1] and in data set [2] were -1.26 ± 1.6 and -0.735 ± 0.52, respectively.
Regarding AATGTTGTTGATGCAACCATAAAGTGATATTTAATAATTATTTATAATCAGCTTCTTAACCACAAAACAACCATATATTGATATCTCACAAAACAACCATAAGTTGATATTTTTGTGAATCGAGTATTTCAGCAAAACTACTGCAGTAAGAA, the entries for the “relative integration efficiency (log2)” value in data set [1] and in data set [2] were -0.0995 ± 0.047 and -0.0854 ± 0.17, respectively.
For AATGTTGTTGATGCAACCATAAAGTGATATTTAATAATTATTTATAATCGGCAACTTAACCACAAAACAACCATATATTGATATCTCACAAAACAACCATAAGTTGATATTTTTGTGAATCGAGTATTTCAGCAAAACTACTGCAGTAAGAA, in that order: -0.586 ± 0.44 and -0.168 ± 0.005.
For AATGTTGTTGATGCAACCATAAAGTGATATTTAATAATTATTTATAATCTGCAACTTAACCACAAAACAACCATATATTGATATCTCACAAAACAACCATAAGTTGATATTTTTGTGAATCGAGTATTTCAGCAAAACTACTGCAGTAAGAA, the “relative integration efficiency (log2)” value was -0.977 ± 0.48 in data set [1] and -0.161 ± 0.19 in data set [2].
AATGTTGTTGATGCAACCATAAAGTGATATTTAATAATTATTTATAATCCGCAACTTAACCACAAAACAACCATATATTGATATCTCACAAAACAACCATAAGTTGATATTTTTGTGAATCGAGTATTTCAGCAAAACTACTGCAGTAAGAA: the “relative integration efficiency (log2)” value is -0.533 ± 0.31 in data set [1] and -0.119 ± 0.099 in data set [2].
AATGTTGTTGATGCAACCATAAAGTGATATTTAATAATTATTTATAATCAGCTTGATAACCACAAAACAACCATATATTGATATCTCACAAAACAACCATAAGTTGATATTTTTGTGAATCGAGTATTTCAGCAAAACTACTGCAGTAAGAA: the figures for the “relative integration efficiency (log2)” value in data set [1] and in data set [2] were -0.3673 ± 0.0015 and -0.413 ± 0.41, respectively.
Consider AATGTTGTTGATGCAACCATAAAGTGATATTTAATAATTATTTATAATCAGCCCAGTAACCACAAAACAACCATATATTGATATCTCACAAAACAACCATAAGTTGATATTTTTGTGAATCGAGTATTTCAGCAAAACTACTGCAGTAAGAA, for which the “relative integration efficiency (log2)” value in data set [1] was -0.0934 ± 0.06; in data set [2] it was -0.592 ± 0.35.
On to AATGTTGTTGATGCAACCATAAAGTGATATTTAATAATTATTTATAATCAGCACATTAACCACAAAACAACCATATATTGATATCTCACAAAACAACCATAAGTTGATATTTTTGTGAATCGAGTATTTCAGCAAAACTACTGCAGTAAGAA, for which the entries for the “relative integration efficiency (log2)” value in data set [1] and in data set [2] were 0.298 ± 0.28 and -0.0734 ± 0.078, respectively.
The like results for AATGTTGTTGATGCAACCATAAAGTGATATTTAATAATTATTTATAATCAGCACCTTAACCACAAAACAACCATATATTGATATCTCACAAAACAACCATAAGTTGATATTTTTGTGAATCGAGTATTTCAGCAAAACTACTGCAGTAAGAA were, in that order, -0.339 ± 0.014 and -0.178 ± 0.022.
With AATGTTGTTGATGCAACCATAAAGTGATATTTAATAATTATTTATAATCTCGTACTTAACCACAAAACAACCATATATTGATATCTCACAAAACAACCATAAGTTGATATTTTTGTGAATCGAGTATTTCAGCAAAACTACTGCAGTAAGAA, the “relative integration efficiency (log2)” value in data set [1] is -0.839 ± 1.2; in data set [2], -0.552 ± 0.39.
Turning to AATGTTGTTGATGCAACCATAAAGTGATATTTAATAATTATTTATAATCAGCCCCTTAACCACAAAACAACCATATATTGATATCTCACAAAACAACCATAAGTTGATATTTTTGTGAATCGAGTATTTCAGCAAAACTACTGCAGTAAGAA, the “relative integration efficiency (log2)” value in data set [1] was determined as 0.297 ± 0.47; in data set [2] it was 0.0858 ± 0.13.
The like results for AATGTTGTTGATGCAACCATAAAGTGATATTTAATAATTATTTATAATCAGCGACTTAACCACAAAACAACCATATATTGATATCTCACAAAACAACCATAAGTTGATATTTTTGTGAATCGAGTATTTCAGCAAAACTACTGCAGTAAGAA were, in that order, 0.388 ± 0.41 and -0.054 ± 0.011.
The like results for AATGTTGTTGATGCAACCATAAAGTGATATTTAATAATTATTTATAATCAGCTACTTAACCACAAAACAACCATATATTGATATCTCACAAAACAACCATAAGTTGATATTTTTGTGAATCGAGTATTTCAGCAAAACTACTGCAGTAAGAA were, in that order, 0.318 ± 0.24 and 0.0743 ± 0.088.
As for AATGTTGTTGATGCAACCATAAAGTGATATTTAATAATTATTTATAATCAGCCACTTAACCACAAAACAACCATATATTGATATCTCACAAAACAACCATAAGTTGATATTTTTGTGAATCGAGTATTTCAGCAAAACTACTGCAGTAAGAA, the “relative integration efficiency (log2)” value in data set [1] was -0.195 ± 0.56; in data set [2], -0.278 ± 0.078.
For AATGTTGTTGATGCAACCATAAAGTGATATTTAATAATTATTTATAATCAGCACAGGAACCACAAAACAACCATATATTGATATCTCACAAAACAACCATAAGTTGATATTTTTGTGAATCGAGTATTTCAGCAAAACTACTGCAGTAAGAA, the “relative integration efficiency (log2)” value in data set [1] is -2.12 ± 1.2; in data set [2], -1.68 ± 0.8.
On to AATGTTGTTGATGCAACCATAAAGTGATATTTAATAATTATTTATATACAGCAACTTAACCACAAAACAACCATATATTGATATCTCACAAAACAACCATAAGTTGATATTTTTGTGAATCGAGTATTTCAGCAAAACTACTGCAGTAAGAA, for which the “relative integration efficiency (log2)” value in data set [1] was 0.0225 ± 0.3; in data set [2] it was 0.341 ± 0.033.
